Results published in article PMC11873932, “PSKH1 kinase activity is differentially modulated via allosteric binding of Ca^2+ sensor proteins” (Proceedings of the National Academy of Sciences of the …, 2025).

T1: Protein Serine Kinase H1 (PSKH1), recombinant full-length, wild type (human, UniProt P11801 1-424)
T1 sequence (looked up): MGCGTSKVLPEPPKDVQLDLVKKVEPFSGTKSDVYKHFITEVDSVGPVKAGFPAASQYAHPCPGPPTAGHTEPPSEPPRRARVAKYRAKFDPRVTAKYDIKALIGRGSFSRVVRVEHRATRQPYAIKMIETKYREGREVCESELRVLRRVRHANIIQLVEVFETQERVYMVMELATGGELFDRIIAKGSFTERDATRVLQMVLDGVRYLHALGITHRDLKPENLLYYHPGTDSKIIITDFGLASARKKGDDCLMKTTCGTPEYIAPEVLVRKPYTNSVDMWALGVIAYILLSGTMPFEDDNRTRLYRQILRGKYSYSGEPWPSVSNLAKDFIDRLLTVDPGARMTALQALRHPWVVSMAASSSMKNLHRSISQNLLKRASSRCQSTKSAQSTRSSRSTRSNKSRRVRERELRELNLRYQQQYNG

B1: Reticulocalbin-3 (RCN3), recombinant (His6-RCN3) (natural protein, human, UniProt Q96D15 21-328, looked up)
chain: KPSPDAGPHGQGRVHQAAPLSDAPHDDAHGNFQYDHEAFLGREVAKEFDQLTPEESQARLGRIVDRMDRAGDGDGWVSLAELRAWIAHTQQRHIRDSVSAAWDTYDTDRDGRVGWEELRNATYGHYAPGEEFHDVEDAETYKKMLARDERRFRVADQDGDSMATREELTAFLHPEEFPHMRDIVIAETLEDLDRNKDGYVQVEEYIADLYSAEPGEEEPAWVQTERQQFRDFRDLNKDGHLDGSEVGHWVLPPAQDQPLVEANHLLHESDTDKDGRLSKAEILGNWNMFVGSQATNYGEDLTRHHDEL
B2: UNC119B, recombinant full-length (natural protein)
chain: not shown
notes: UNC119B, human, full length

Assays:
[1] = target: T1, Protein Serine Kinase H1 (PSKH1), …; experiment: cell-based or functional assay
[2] = target: T1, Protein Serine Kinase H1 (PSKH1), …; experiment: cross-linking; SDA (NHS-Diazirine, 1 mg/mL) cross-linking mass spectrometry; recombinant full-length PSKH1 with Calmodulin, RCN3 or UNC119B at 1:2 molar ratio; 30 min in the dark at room temperature, UV 365 nm; bands cut from reducing SDS-PAGE, trypsin; conditions: both partners purified

radiometric kinase assay (ADR1 peptide phosphorylation) of HA-tagged PSKH1 (10 ng) with Ca2+-RCN3 (1 uM) [1] [fold]	binding result [2]	Binder
~2	–	B1
–	binds	B2
